Substrate: OC[C@H]1OC(O)[C@H](O)[C@@H](O)[C@@H]1O
Assay: Measurement of kinetic parameters of glucose isomerase mutant MGI-4 with D-glucose as substrate
Format: biochemical, Thermoanaerobacterium saccharolyticum
Settings: pH 6.5, 20 mM sodium phosphate, 250 μM CoCl2, 5 mM MgCl2, 10 minutes
Procedure: Fragment AFSR was amplified using primer pair 182AF (see Table 1 below) and 187SR (see Table 1) on the following condition: 20 mM Tris-HCl (pH 8.8), 10 mM KCl, 10 mM (NH4)2SO4, 2 mM MgSO4, 0.1% Triton X-100, 0.4 μM Primer 182AF and 0.4 μM Primer 187SR, 50 μM DATP, 50 μM dTTP, 50 μM dCTP, 50 μM dGTP, 1.5 U Pfu DNA polymerase, 20 ng pGEMT-TS, and the total volume was adjusted to 50 μl with distilled water. The PCR amplification program for the reaction was: 95° C., 3 min; then 35 cycles of 95° C., 50 seconds, 52° C., 30 seconds, 72° C., 180 seconds; and with an additional 5 minutes at 72° C. at the end of the reaction. The PCR product, fragment AFSR, was separated on 1% agarose gel and recovered using QIAquick Gel Extraction Kit (QIAGEN, German). Fragment SFQR was amplified using primer pair 187SF (Example 4) and 299QR (Example 5) on the following condition: 20 mM Tris-HCl (pH 8.8), 10 mM KCl, 10 mM (NH4)2SO4, 2 mM MgSO4, 0.1% Triton X-100, 0.4 μM Primer 187SF and 0.4 μM Primer 299QR, 50 μM dATP, 50 μM dTTP, 50 μM dCTP, 50 μM dGTP, 1.5 U Pfu DNA polymerase, 20 ng pGEMT-TS, and the total volume was adjusted to 50 μl with distilled water. The PCR amplification program for the reaction was: 95° C., 3 min; then 35 cycles of 95° C., 50 seconds, 52° C., 30 seconds, 72° C., 180 seconds; and with an additional 5 minutes at 72° C. at the end of the reaction. The PCR product, fragment SFQR, was separated on 1% agarose gel and recovered using QIAquick Gel Extraction Kit (QIAGEN, German). The full-length glucose isomerase gene was then amplified on the following condition: 20 mM Tris-HCl (pH 8.8), 10 mM KCl, 10 mM (NH4)2SO4, 2 mM MgSO4, 0.1% Triton X-100, 0.4 μM Primer T1 and 0.4 μM Primer T2, 50 μM dATP, 50 μM dTTP, 50 μM dCTP, 50 μM dGTP, 1.5 U Pfu DNA polymerase, 20 ng fragment T1FR (Example 2), 20 ng fragment FFAR (Example 6), 20 ng […], 20 ng fragment SFQR and 20 ng fragment QFT2 (Example 5), and the total volume was adjusted to 50 μl with distilled water. The PCR amplification program for the reaction was: 95° C., 3 min; then 35 cycles of 95° C., 50 seconds, 52° C., 30 seconds, 72° C., 180 seconds; and with an additional 5 minutes at 72° C. at the end of the reaction. The full-length mutant MGI-4 was separated on 1% agarose gel and recovered using QIAquick Gel Extraction Kit (QIAGEN, German). Plasmid pGEMT-MGI-4, generated after ligation between MGI-4 and pGEMT-Easy, was transformed into competent E. coli HB101 and the transformants were screened for clones of glucose isomerase activity on 1% MacConkey agar plates containing 1% D-xylose and 50 mg/L ampicillin. pGEMT-MGI-4 DNA was then isolated from the positive clones and sequenced. The sequencing results confirmed that the desired site-directed mutations were correctly introduced. Its amino acid sequence was shown as SEQ ID NO.: 32 (see the Sequence Listing below).
The isolation and purification of glucose isomerase mutant MGI-4 were as described in Example 9, except the plasmid used was pGEMT-MGI-4. The partially purified enzyme was shown on FIG. 1. Other glucose isomerase mutants were also isolated and purified as described in Example 9.

B1: Thermoanaerobacterium saccharolyticum glucose isomerase mutant MGI-4 (W139F/R182A/F187S/T299Q), SEQ ID NO.: 32 (Thermoanaerobacterium saccharolyticum; … (protein)
chain: MNKYFENVSKIKYEGPKSNNPYSFKFYNPEEVIDGKTMEEHLRFSIAYWHTFTADGTDQFGKATMQRPWNHYTDPMDIAKARVEAAFEFFDKINAPFFCFHDRDIAPEGDTLRETNKNLDTIVAMIKDYLKTSKTKVLFGTANLFSNPRFVHGASTSCNADVFAYSAAQVKKALEITKELGAENYVSWGGREGYETLLNTDMELELDNFARFLHMAVDYAKEIGFEGQFLIEPKPKEPTKHQYDFDVANVLAFLRKYDLDKYFKVNIEANHATLAFHDFQHELRYARINGVLGSIDANQGDMLLGWDTDQFPTDIRMTTLAMYEVIKMGGFDKGGLNFDAKVRRASFEPEDLFLGHIAGMDAFAKGFKVAYKLVKDGVFDKFIEERYASYKEGIGADIVSGKADFKSLEKYALEHSQIVNKSGRQELLESILNQYLFAE
Km (other: MGI-4, 65° C., 65.0 °C): 27.9 mM
kcat (other: MGI-4, 65° C., 65.0 °C): 16.817 s⁻¹
kcat/Km (other: MGI-4, 65° C., 65.0 °C): 602 M⁻¹ s⁻¹
Km (other: MGI-4, 80° C., 80.0 °C): 51.3 mM
kcat (other: MGI-4, 80° C., 80.0 °C): 49.685 s⁻¹
kcat/Km (other: MGI-4, 80° C., 80.0 °C): 968 M⁻¹ s⁻¹
